Article PMC2275084

T1: C598 (Tetrahymena thermophila, UniProt O77448 520-1117)
T1 sequence: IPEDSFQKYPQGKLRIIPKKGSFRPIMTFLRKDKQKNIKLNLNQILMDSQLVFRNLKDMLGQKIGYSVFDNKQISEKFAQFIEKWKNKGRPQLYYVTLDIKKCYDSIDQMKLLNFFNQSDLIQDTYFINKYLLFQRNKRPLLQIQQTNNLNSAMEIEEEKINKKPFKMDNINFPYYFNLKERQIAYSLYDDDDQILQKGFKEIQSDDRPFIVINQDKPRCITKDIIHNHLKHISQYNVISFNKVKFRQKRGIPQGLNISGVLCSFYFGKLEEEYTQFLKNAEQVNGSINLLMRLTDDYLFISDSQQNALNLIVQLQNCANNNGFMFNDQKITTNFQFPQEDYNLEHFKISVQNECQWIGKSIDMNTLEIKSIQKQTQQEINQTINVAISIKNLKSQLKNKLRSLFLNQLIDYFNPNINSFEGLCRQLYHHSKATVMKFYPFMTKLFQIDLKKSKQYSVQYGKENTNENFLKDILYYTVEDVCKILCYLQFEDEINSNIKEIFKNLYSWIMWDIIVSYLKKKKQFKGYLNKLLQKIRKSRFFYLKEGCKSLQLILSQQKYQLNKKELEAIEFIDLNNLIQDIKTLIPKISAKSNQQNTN

T2: TEN domain (E. coli) (Tetrahymena thermophila, UniProt O77448 2-191)
T2 sequence: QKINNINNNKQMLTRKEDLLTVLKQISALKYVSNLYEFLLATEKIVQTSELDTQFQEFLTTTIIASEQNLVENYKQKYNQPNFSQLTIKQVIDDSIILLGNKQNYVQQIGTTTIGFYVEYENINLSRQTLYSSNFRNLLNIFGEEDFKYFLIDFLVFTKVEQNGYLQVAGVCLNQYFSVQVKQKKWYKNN

T3: N519 (Tetrahymena thermophila, UniProt O77448 1-519)
T3 sequence: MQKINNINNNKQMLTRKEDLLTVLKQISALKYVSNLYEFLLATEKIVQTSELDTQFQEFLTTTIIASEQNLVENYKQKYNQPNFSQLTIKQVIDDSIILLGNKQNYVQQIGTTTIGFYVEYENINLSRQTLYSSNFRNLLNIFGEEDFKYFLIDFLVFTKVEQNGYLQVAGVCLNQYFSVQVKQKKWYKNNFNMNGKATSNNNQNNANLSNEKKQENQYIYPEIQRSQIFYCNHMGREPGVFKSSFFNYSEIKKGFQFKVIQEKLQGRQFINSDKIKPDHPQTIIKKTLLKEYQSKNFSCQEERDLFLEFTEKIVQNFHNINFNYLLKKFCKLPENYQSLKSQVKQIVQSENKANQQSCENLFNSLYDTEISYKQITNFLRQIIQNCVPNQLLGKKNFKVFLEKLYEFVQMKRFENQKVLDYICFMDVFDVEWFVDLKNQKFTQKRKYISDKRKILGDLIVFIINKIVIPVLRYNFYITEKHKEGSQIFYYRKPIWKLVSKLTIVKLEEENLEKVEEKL

T4: TERT deltaC233 (Tetrahymena thermophila, UniProt O77448 1-884)
T4 sequence: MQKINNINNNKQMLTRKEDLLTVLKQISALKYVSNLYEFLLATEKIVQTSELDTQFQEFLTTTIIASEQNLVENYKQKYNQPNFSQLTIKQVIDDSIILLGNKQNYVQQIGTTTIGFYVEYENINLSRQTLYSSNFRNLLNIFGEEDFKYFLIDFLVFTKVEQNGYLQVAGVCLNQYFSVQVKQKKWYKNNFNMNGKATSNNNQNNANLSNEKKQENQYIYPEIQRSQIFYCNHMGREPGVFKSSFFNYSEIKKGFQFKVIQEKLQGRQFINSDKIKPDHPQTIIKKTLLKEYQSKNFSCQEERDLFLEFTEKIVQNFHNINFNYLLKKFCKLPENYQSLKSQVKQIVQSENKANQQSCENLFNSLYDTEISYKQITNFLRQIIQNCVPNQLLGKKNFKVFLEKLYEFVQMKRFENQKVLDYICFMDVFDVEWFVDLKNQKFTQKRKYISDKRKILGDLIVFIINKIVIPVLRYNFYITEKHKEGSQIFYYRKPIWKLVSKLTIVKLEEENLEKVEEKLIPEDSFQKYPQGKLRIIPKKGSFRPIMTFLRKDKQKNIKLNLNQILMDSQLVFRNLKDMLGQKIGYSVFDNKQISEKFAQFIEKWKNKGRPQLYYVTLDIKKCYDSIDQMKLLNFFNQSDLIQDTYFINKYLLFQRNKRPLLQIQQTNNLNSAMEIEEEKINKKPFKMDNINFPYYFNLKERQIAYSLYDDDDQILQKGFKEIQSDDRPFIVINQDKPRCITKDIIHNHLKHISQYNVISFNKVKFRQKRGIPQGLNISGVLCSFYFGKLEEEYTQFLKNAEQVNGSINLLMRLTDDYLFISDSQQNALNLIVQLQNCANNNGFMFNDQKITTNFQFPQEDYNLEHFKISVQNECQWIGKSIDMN

T5: TERT deltaTEN (Tetrahymena thermophila, UniProt O77448 192-1117)
T5 sequence: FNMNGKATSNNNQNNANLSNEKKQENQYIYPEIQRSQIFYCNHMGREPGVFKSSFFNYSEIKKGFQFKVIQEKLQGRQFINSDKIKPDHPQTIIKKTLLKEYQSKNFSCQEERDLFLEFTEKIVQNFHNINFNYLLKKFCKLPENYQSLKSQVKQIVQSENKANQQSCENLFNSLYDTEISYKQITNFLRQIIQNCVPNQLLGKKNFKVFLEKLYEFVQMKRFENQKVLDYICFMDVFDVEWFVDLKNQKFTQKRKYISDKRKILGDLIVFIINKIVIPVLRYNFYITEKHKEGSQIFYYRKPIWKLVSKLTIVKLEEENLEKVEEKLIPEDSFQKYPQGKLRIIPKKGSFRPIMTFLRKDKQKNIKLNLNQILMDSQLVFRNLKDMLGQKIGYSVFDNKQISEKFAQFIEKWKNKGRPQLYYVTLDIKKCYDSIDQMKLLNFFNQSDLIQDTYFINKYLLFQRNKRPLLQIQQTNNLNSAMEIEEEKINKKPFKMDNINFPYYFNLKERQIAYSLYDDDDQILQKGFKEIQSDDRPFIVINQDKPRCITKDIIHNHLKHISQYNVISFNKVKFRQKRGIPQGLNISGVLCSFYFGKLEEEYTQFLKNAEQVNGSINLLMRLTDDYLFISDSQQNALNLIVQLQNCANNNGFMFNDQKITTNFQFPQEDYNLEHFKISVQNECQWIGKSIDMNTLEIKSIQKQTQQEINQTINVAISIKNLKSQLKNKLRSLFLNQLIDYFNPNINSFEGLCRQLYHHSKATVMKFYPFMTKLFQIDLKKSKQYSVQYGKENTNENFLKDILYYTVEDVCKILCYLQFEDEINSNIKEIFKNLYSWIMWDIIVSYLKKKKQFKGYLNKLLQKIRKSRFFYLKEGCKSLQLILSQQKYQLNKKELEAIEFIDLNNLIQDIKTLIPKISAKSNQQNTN

T6: TEN domain (in vitro translated) (Tetrahymena thermophila, UniProt O77448 2-191)
T6 sequence: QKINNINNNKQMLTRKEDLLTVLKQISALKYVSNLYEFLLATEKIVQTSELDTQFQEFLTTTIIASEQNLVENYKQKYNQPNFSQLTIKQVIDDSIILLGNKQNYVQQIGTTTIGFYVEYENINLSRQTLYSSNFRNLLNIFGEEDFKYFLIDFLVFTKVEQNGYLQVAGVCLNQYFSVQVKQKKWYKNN


Key:
C598 = biological target: T1, C598; experiment: UV crosslinking
TEN domain (E. coli) = biological target: T2, TEN domain (E. coli); experiment: UV crosslinking
N519 [1] = biological target: T3, N519; experiment: UV crosslinking
N519 [2] = biological target: T3, N519; experiment: NeutrAvidin pull-down
TERT deltaC233 = biological target: T4, TERT deltaC233; experiment: NeutrAvidin pull-down
TERT deltaTEN = biological target: T5, TERT deltaTEN; experiment: NeutrAvidin pull-down
[3] = biological target: T6, TEN domain (in vitro translated); experiment: NeutrAvidin pull-down

| Binder | binding result (C598) | binding result (TEN domain (E. coli)) | binding result (N519 [1]) | binding signal (N519 [2]) | binding signal (TERT deltaC233) | binding signal (TERT deltaTEN) | binding result [3] |
| --- | --- | --- | --- | --- | --- | --- | --- |
| TTGGGGUTGGGGTTGGGGTT (ssDNA, 5-iodo-dU at position 7) [I(7)20GTT] | binds | binds | binds |  |  |  |  |
| GGGGTTGGGGTTGGGGTT (ssDNA, 5' biotin) [Bio-18GTT] |  |  |  | ~6 fold lower affinity than full-length TERT | ~4 fold higher Kd than full-length TERT | ~4 fold higher Kd than full-length TERT | no binding |
| TTGGGGTTGGGGTTGGGGUT (ssDNA, 5-iodo-dU at position 19) [I(19)20GTT] | binds | binds | binds |  |  |  |  |
| TTGGGGTTGGGGUTGGGGTT (ssDNA, 5-iodo-dU at position 13) [I(13)20GTT] | binds | binds | binds |  |  |  |  |
| UTGGGGTTGGGGTTGGGGTT (ssDNA, 5-iodo-dU at position 1) [I(1)20GTT] | binds |  | binds |  |  |  |  |
